Where a chain is given by its changes, count along the chain named.
Assays:
Assay in all cases: EMSA
[1] = target: T1, BsSpo0J H57E (UniProt P26497 1-282, H57E)
T1 sequence: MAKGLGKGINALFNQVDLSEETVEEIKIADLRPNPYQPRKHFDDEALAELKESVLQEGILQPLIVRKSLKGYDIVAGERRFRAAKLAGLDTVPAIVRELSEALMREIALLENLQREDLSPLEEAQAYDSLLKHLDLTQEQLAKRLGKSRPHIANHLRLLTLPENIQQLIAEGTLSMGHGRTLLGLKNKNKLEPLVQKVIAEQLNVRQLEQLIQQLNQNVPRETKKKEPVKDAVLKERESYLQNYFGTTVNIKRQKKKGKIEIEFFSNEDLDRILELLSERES

[2] = target: T2, BsSpo0J Q61A (UniProt P26497 1-282, Q61A)
T2 sequence: T1 sequence with E57H, Q61A

[3] = target: T3, BsSpo0J E52R (UniProt P26497 1-282, E52R)
T3 sequence: T1 sequence with E52R, E57H

[4] = target: T4, BsSpo0J Q140A (UniProt P26497 1-282, Q140A)
T4 sequence: T1 sequence with E57H, Q140A

[5] = target: T5, BsSpo0J L60E (UniProt P26497 1-282, L60E)
T5 sequence: T1 sequence with E57H, L60E

[6] = target: T6, BsSpo0J Q140R (UniProt P26497 1-282, Q140R)
T6 sequence: T1 sequence with E57H, Q140R

[7] = target: T7, BsSpo0J R80A (UniProt P26497 1-282, R80A)
T7 sequence: T1 sequence with E57H, R80A

[8] = target: T8, BsSpo0J F81A (UniProt P26497 1-282, F81A)
T8 sequence: T1 sequence with E57H, F81A

[9] = target: T9, BsSpo0J R82A (UniProt P26497 1-282, R82A)
T9 sequence: T1 sequence with E57H, R82A

Measured: binding result

B1: 39-bp parS (dsDNA)
DNA 1: CAGTTGAATCAGAATGTTCCACGTGAAACAAAGAAAAAA
DNA 2: TTTTTTCTTTGTTTCACGTGGAACATTCTGATTCAACTG
binds: all assays above

From publication PMC5499601 (Nucleic Acids Research, 2017)
